Results as given in publication PMC3953254.

Molecular target: SadB (cytosolic construct without signal peptide, Cys-22 replaced by serine) (S. typhimurium) (UniProt Q8ZL65)
Assay: crystal structure; SadB at 8 mg/ml in 20 mM MOPS/HCl, pH 7, 50 mM NaCl; sitting drop at 20 °C; reservoir 0.2 M lithium sulfate, 0.1 M Tris, pH 8.5, 20% (w/v) PEG 4000; 2.45 Å

SadB (cytosolic construct without signal peptide, Cys-22 replaced by serine) (from UniProt Q8ZL65 22-227) (domain or fragment)
stoichiometry N: 3
